Results taken from US20040081647.

Molecular target: recombinant human TNFα (RDI) (UniProt P01375)
Sequence (P01375 77-233): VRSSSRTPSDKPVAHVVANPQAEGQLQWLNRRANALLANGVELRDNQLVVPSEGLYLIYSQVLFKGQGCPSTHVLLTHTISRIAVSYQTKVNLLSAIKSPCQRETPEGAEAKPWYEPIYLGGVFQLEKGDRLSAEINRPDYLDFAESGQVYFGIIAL

Sequence of MMP12 (P39900 106-470): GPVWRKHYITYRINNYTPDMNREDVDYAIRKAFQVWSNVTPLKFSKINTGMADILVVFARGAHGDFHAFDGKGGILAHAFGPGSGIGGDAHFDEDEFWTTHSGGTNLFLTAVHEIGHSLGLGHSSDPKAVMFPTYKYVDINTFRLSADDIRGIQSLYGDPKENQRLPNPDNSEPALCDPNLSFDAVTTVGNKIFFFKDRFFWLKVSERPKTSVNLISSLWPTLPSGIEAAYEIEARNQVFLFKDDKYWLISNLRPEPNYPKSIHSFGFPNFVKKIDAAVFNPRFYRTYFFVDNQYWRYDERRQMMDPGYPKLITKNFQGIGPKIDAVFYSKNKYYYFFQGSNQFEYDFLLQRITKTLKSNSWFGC
Sequence of Plasmin (P00747 20-580): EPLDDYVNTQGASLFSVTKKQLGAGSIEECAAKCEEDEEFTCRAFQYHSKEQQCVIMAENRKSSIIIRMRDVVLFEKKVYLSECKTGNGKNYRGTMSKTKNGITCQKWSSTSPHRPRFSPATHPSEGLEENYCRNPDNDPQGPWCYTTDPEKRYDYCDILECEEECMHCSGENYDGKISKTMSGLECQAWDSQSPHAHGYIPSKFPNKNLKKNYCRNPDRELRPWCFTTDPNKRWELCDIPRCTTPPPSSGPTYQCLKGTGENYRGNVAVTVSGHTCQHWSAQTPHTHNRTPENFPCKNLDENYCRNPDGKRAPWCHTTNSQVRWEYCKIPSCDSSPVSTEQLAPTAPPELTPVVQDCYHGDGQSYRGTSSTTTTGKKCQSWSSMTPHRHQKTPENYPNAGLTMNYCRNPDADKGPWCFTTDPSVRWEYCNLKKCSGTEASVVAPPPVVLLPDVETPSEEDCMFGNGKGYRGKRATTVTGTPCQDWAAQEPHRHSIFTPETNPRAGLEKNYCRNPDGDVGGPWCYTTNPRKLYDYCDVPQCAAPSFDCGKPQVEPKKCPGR
Sequence of Plasmin (P00747 581-810): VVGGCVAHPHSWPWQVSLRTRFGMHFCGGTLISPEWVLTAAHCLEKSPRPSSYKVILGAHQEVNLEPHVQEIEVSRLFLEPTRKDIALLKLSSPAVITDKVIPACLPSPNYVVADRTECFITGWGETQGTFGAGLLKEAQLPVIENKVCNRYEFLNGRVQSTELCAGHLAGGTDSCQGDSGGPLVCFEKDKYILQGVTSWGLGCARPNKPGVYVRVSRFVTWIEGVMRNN

Substance | log reduction in TNFα activity (L929 cytotoxicity bioassay after overnight digestion) | inactivation of TNFα (L929 cytotoxicity bioassay after overnight digestion)
MT1-MMP | MT1-MMP (0.86) | 
MMP3 |  | MMP3 (under: Proteases that did not inactivate TNF)
ADAM10 |  | ADAM10 (under: Proteases that did not inactivate TNF)
ELASTASE | ELASTASE (1.45) | 
Urokinase |  | Urokinase (under: Proteases that did not inactivate TNF)
CHYMOTRYPSIN | CHYMOTRYPSIN (2.74) | 
Tryptase | Tryptase (0.62) | 
TACE |  | TACE (under: Proteases that did not inactivate TNF)
MMP12 | MMP12 (0.65) | 
HIV Protease |  | HIV Protease (under: Proteases that did not inactivate TNF)
Furin |  | Furin (under: Proteases that did not inactivate TNF)
Kallikrein5 |  | Kallikrein5 (under: Proteases that did not inactivate TNF)
TRYPSIN | TRYPSIN (2.3) | 
MT5-MMP |  | MT5-MMP (under: Proteases that did not inactivate TNF)
Plasmin |  | Plasmin (under: Proteases that did not inactivate TNF)
Enterokinase |  | Enterokinase (under: Proteases that did not inactivate TNF)
